Measurements from patent US20210171647A1 (WUXI BIOLOGICS SHANGHAI, published 2021).

What was measured:
Assay in all cases: ELISA, antibody coated, OX40-ECD.His mutant supernatant; relative to silent alanine substitutions;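 also: captured OX40 mutant protein detected with HRP-labelled anti-His antibody, absorbance read-out, scaled to the mean signal of control mutants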
human OX40-ECD.His D168A = molecular target: T1, human OX40-ECD.His D168A (human, UniProt P43489 29-214)
T1 construct: extracellular domain; not shown: C-terminal His-tag
T1 sequence (looked up): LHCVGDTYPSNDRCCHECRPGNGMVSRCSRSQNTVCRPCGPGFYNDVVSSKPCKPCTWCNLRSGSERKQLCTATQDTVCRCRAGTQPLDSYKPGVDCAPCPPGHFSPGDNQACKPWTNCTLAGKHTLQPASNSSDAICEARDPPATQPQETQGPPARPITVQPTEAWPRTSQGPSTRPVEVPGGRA

human OX40-ECD.His P80A = molecular target: T2, human OX40-ECD.His P80A (human, UniProt P43489 29-214)
T2 construct: extracellular domain; not shown: C-terminal His-tag
T2 sequence (looked up): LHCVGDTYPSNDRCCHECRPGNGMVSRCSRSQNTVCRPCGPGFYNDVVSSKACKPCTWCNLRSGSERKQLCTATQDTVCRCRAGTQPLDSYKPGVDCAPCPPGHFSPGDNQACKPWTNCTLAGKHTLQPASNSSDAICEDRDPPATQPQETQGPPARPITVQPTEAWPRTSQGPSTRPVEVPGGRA

human OX40-ECD.His R47A = molecular target: T3, human OX40-ECD.His R47A (human, UniProt P43489 29-214)
T3 construct: extracellular domain; not shown: C-terminal His-tag
T3 sequence (looked up): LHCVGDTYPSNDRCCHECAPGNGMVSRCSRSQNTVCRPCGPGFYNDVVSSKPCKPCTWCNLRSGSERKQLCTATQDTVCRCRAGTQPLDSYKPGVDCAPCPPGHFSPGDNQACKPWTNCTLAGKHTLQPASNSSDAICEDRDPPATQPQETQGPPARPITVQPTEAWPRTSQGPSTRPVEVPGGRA

human OX40-ECD.His A101G = molecular target: T4, human OX40-ECD.His A101G (human, UniProt P43489 29-214)
T4 construct: extracellular domain; not shown: C-terminal His-tag
T4 sequence (looked up): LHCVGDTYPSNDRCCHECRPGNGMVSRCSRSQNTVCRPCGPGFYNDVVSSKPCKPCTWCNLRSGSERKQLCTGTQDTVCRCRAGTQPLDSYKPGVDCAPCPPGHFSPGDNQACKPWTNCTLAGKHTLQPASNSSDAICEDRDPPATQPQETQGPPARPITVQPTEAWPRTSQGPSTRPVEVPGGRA

human OX40-ECD.His T148A = molecular target: T5, human OX40-ECD.His T148A (human, UniProt P43489 29-214)
T5 construct: extracellular domain; not shown: C-terminal His-tag
T5 sequence (looked up): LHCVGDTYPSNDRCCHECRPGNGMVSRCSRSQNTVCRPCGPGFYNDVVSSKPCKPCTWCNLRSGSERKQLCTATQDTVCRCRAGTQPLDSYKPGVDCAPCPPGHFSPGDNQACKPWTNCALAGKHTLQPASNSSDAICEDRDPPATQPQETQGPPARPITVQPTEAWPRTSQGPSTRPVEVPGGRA

human OX40-ECD.His R169A = molecular target: T6, human OX40-ECD.His R169A (human, UniProt P43489 29-214)
T6 construct: extracellular domain; not shown: C-terminal His-tag
T6 sequence (looked up): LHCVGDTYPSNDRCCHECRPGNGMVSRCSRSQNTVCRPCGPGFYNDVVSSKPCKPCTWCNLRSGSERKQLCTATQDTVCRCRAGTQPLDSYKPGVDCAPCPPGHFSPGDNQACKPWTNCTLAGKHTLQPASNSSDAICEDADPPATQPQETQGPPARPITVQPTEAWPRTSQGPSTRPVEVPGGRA

human OX40-ECD.His H132A = molecular target: T7, human OX40-ECD.His H132A (human, UniProt P43489 29-214)
T7 construct: extracellular domain; not shown: C-terminal His-tag
T7 sequence (looked up): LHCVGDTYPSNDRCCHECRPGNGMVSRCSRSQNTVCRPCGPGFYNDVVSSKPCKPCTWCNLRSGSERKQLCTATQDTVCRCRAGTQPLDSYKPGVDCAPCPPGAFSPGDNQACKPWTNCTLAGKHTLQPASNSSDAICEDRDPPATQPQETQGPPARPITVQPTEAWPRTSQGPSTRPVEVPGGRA

human OX40-ECD.His L149A = molecular target: T8, human OX40-ECD.His L149A (human, UniProt P43489 29-214)
T8 construct: extracellular domain; not shown: C-terminal His-tag
T8 sequence (looked up): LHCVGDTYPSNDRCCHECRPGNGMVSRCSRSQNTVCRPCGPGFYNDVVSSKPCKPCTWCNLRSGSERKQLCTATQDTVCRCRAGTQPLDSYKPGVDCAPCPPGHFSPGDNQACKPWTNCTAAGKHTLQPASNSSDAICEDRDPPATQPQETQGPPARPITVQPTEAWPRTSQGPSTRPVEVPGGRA

human OX40-ECD.His E45A = molecular target: T9, human OX40-ECD.His E45A (human, UniProt P43489 29-214)
T9 construct: extracellular domain; not shown: C-terminal His-tag
T9 sequence (looked up): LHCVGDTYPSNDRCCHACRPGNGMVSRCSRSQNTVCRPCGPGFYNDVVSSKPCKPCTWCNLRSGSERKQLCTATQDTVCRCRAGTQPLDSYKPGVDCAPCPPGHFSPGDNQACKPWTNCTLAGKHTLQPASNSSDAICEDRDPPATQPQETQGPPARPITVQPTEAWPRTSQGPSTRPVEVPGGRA

human OX40-ECD.His S162A = molecular target: T10, human OX40-ECD.His S162A (human, UniProt P43489 29-214)
T10 construct: extracellular domain; not shown: C-terminal His-tag
T10 sequence (looked up): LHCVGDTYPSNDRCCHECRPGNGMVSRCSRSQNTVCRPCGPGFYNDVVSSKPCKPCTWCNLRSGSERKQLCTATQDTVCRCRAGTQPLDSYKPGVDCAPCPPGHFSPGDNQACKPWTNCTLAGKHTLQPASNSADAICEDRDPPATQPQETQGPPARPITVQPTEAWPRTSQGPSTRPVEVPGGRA

Fold Change (human OX40-ECD.His D168A): 0.983
Fold Change (human OX40-ECD.His P80A): 0.944
Fold Change (human OX40-ECD.His R47A): 1
Fold Change (human OX40-ECD.His A101G): 0.881
Fold Change (human OX40-ECD.His T148A): 1
Fold Change (human OX40-ECD.His R169A): 1
Fold Change (human OX40-ECD.His H132A): 0.826
Fold Change (human OX40-ECD.His L149A): 1
Fold Change (human OX40-ECD.His E45A): 1.02
Fold Change (human OX40-ECD.His S162A): 0.998
B1: 1.134.9-u1-IgG1L (antibody, V domains shown)
VH: QVQLQESGPGLVKPSGTLSLTCAVSGGSISSYNWWSWVRQPPGKGLEWIGEIYHGGNTNYNPSLKSRVTMSVDNSKNQFSLKLSSVTAADTAVYYCARAPGDWGGSPYFDFWGQGTLVTVSS
VL: SSELTQDPAVSVALGQTVRITCQGDNLRTYYASWYQQKPGQAPILLIYGRNKRPSGIPDRFSGSSSGNTASLTITGAQAEDEAAYYCNSRDSSGNPVVFGGGTKLTVL
notes: fully human IgG1, lambda
